Data taken from patent US20250235548A1, “ANTIBODY-DRUG CONJUGATES TARGETING NAPI2B AND METHODS OF USE” (Zymeworks BC Inc., priority 2022, published 2025).
Entries after “also recorded” stand apart in the source; their conditions may differ.

System: NaPi2b-negative EBC-1 cells
Assay: Bystander activity, EBC-1 mono-culture vs co-culture with HCC-78 (Examples 19 and 34)
Type: cell-based
Details: for bystander activity (in words): 5 nM test article; for bystander activity (in words) / Average EBC-1 % viability in co-culture / Average EBC-1 % viability in mono-culture: 4 days
Experimental: The ability of v29456 ADCs to exert a bystander killing effect on cancer cells was assessed according to the method described below. Bystander killing can occur after target-specific uptake of an ADC into an antigen-positive cell. In this case, catabolism of the ADC results in release of payload or an active catabolite, which then crosses the cell membrane of nearby cells to elicit their death.
Cell lines used were HCC-78 (high NaPi2b expression) and EBC-1 (negative NaPi2b expression).
(§1) NaPi2b-positive HCC-78 and NaPi2b-negative EBC-1 cells were seeded either as mono-cultures or co-cultures in a 48-well plate at 15,000 cells and 5,000 cells, respectively, in 100 μL assay media (RPMI1640+10% FBS). ADCs were diluted to 10 nM in assay media and 100 μL was added to the cell-containing plates (5 nM final ADC concentration). Cells were incubated with ADCs for 4 days under standard culturing conditions (37° C./5% CO2). […] After incubation, cells were washed in FACS buffer, resuspended in 70 μL FACS buffer per well, and 35 μL per well were analyzed on a BD LSRFortessa™ Cell Analyzer (BD Biosciences, Franklin Lake, NJ). Dead cells were excluded by gating on YO—PRO®-1 staining. The number of HCC-78 and EBC-1 cells were determined by the number of events in the Alexa Fluor®647 positive (NaPi2b-positive) and Alexa Fluor®647 negative (NaPi2b-negative) gates, respectively. Percent viability was calculated as the number of cells in treatment condition divided by the number of cells in the no-treatment condition.
(§2) Bystander effect was calculated by comparing the viability of NaPi2b-negative EBC-1 cells treated as mono-culture (black bars) with that of the cells treated as a co-culture with NaPi2b-positive HCC-78 cells (grey bars). A greater decrease in viability in co-culture compared with mono-culture indicated a greater bystander effect.
Bystander killing can occur after target-specific uptake of an ADC into an antigen-positive cell, as described in Example 19. Cell lines used were HCC-78 (high NaPi2b expression) and EBC-1 (negative NaPi2b expression). Surface NaPi2b expression for these cell lines were measured as described in Example 15.
[…] […] The human antibody variant v29456 conjugated to MC-GGFG-AM-DXd1 was included as a positive control.
as §1, with “Briefly, NaPi2b-positive HCC-78” for “NaPi2b-positive HCC-78”, “10 nM or 40 nM in assay” for “10 nM in assay”, “plates (5 nM or 20 nM final” for “plates (5 nM final”, “resuspended in 60 μL FACS” for “resuspended in 70 μL FACS”, “cells in each treatment condition” for “cells in treatment condition”
as §2, with “indicates” for “indicated”

| Substance | bystander activity (in words) | Average EBC-1 % viability in co-culture (5 nM ADC, co-culture with NaPi2b-positive HCC-78, relative to untreated blank) [%] | Average EBC-1 % viability in mono-culture (5 nM ADC, relative to untreated blank) [%] | % Bystander activity (5 nM ADC, viability in mono-culture compared with co-culture) [%] | % Bystander activity (5 nM, Biological Replicate 1) [%] | Average EBC-1 % viability in co-culture (5 nM, Biological Replicate 1, co-culture with HCC-78, relative to untreated blank) [%] | Average EBC-1 % viability in mono-culture (5 nM, Biological Replicate 1, relative to untreated blank) [%] | % Bystander activity (20 nM, Biological Replicate 1) [%] | Average EBC-1 % viability in co-culture (20 nM, Biological Replicate 1, co-culture with HCC-78, relative to untreated blank) [%] | Average EBC-1 % viability in mono-culture (20 nM, Biological Replicate 1, relative to untreated blank) [%] |
| --- | --- | --- | --- | --- | --- | --- | --- | --- | --- | --- |
| palivizumab MC-GGFG-AM-DXd1: "palivizumab (v22277) MC-GGFG-AM-DXd1", negative control | negative bystander activity; also recorded: negligible bystander activity |  |  |  |  |  |  |  |  |  |
| palivizumab MCvcPABC-MMAE: "palivizumab (v22277) MCvcPABC-MMAE", negative control | negative bystander activity; also recorded: negligible bystander activity |  |  |  |  |  |  |  |  |  |
| v22277-MCvcPABC-MMAE: negative (non-NaPi2b targeting) controls palivizumab (v22277) MC-GGFG-AM-DXd and palivizumab (v22277) MCvcPABC-MMAE |  | 95.8 | 86.4 | −9.4 | 7.5 | 81.7 | 89.2 | 7.4 | 84.1 | 91.5 |
